Tested on: cocaine
Test: Plasma cocaine, benzoylecgonine and ecgonine methyl ester (LC-MS) and cocaine PK after IV cocaine post-AlbuBChE
Assay type: in vivo, cynomolgus monkeys
Method: Blood was placed into K2EDTA blood collection tubes with esterase inhibitor diisopropylfluorophosphate (DFP). Tubes were inverted several times and placed on wet ice upon collection. Samples were centrifuged at 2-8° C. within 45 minutes of collection. The resultant plasma was recovered and a single 200 μL aliquot of plasma was placed into polypropylene tubes. Plasma samples were frozen over dry ice and stored at −75±15° C.
The following outline describes the LC-MS-based assay employed for the measurement of cocaine in plasma samples. Prior to MS analysis, plasma samples, calibration standards and controls were extracted using supported liquid extraction (SLE-ISOLUTE, Biotage). Twenty-five microliters of samples (25 μL) received 150 μl of 5% Ammonium hydroxide and 25 μl internal standard solution (Cocaine-d3). After mixing and transfer to SLE plate, samples were eluted with methylene chloride and evaporated to dryness. After resuspension in 50 μl of reconstitution solution—5% ACM in 10 mM ammonium acetate in water, 10 μl was injected onto Thermo Hypercarb column at 0.5 ml/min. Mobile phase was biphasic. Mass spectrophotometric detection was performed using Api 4000, APCI positive interface and Multiple Reaction Monitoring (MRM). Plasma concentrations of cocaine, benzoylecgonine and ecgonine methyl ester were determined using this assay.
When the data permits, pharmacokinetic parameter values for cocaine and its metabolites were determined using plasma concentration-times profiles for individual animals at all the study days of cocaine administration. […] Specifically the model for non-compartmental analysis with IV bolus input for cocaine and extravascular input for the metabolites.

[1] = 0.2 mg/kg IM, cocaine 1 mg/kg IV 120 hr post-AlbuBChE, 40 min after cocaine
[2] = 0.2 mg/kg IM, cocaine 1 mg/kg IV 120 hr post-AlbuBChE, 60 min after cocaine
[3] = 0.2 mg/kg IM, cocaine 1 mg/kg IV 240 hr post-AlbuBChE
[4] = 0.2 mg/kg IM, cocaine 1 mg/kg IV 240 hr post-AlbuBChE, 5 min after cocaine
[5] = 0.2 mg/kg IM, cocaine 1 mg/kg IV 240 hr post-AlbuBChE, 10 min after cocaine
[6] = 0.2 mg/kg IM, cocaine 1 mg/kg IV 240 hr post-AlbuBChE, 15 min after cocaine
[7] = 0.2 mg/kg IM, cocaine 1 mg/kg IV 240 hr post-AlbuBChE, 20 min after cocaine
[8] = 0.2 mg/kg IM, cocaine 1 mg/kg IV 240 hr post-AlbuBChE, 30 min after cocaine
[9] = 0.2 mg/kg IM, cocaine 1 mg/kg IV 240 hr post-AlbuBChE, 40 min after cocaine
[10] = 0.2 mg/kg IM, cocaine 1 mg/kg IV 240 hr post-AlbuBChE, 60 min after cocaine
[11] = 1 mg/kg IM, cocaine 1 mg/kg IV 2 hr post-AlbuBChE
[12] = 1 mg/kg IM, cocaine 1 mg/kg IV 2 hr post-AlbuBChE, 5 min after cocaine
[13] = 1 mg/kg IM, cocaine 1 mg/kg IV 2 hr post-AlbuBChE, 10 min after cocaine
[14] = 1 mg/kg IM, cocaine 1 mg/kg IV 2 hr post-AlbuBChE, 15 min after cocaine
[15] = 1 mg/kg IM, cocaine 1 mg/kg IV 2 hr post-AlbuBChE, 20 min after cocaine
[16] = 1 mg/kg IM, cocaine 1 mg/kg IV 2 hr post-AlbuBChE, 30 min after cocaine
[17] = 1 mg/kg IM, cocaine 1 mg/kg IV 2 hr post-AlbuBChE, 40 min after cocaine
[18] = 1 mg/kg IM, cocaine 1 mg/kg IV 2 hr post-AlbuBChE, 60 min after cocaine
[19] = 1 mg/kg IM, cocaine 1 mg/kg IV 48 hr post-AlbuBChE
[20] = 1 mg/kg IM, cocaine 1 mg/kg IV 48 hr post-AlbuBChE, 5 min after cocaine
[21] = 1 mg/kg IM, cocaine 1 mg/kg IV 48 hr post-AlbuBChE, 10 min after cocaine
[22] = 1 mg/kg IM, cocaine 1 mg/kg IV 48 hr post-AlbuBChE, 15 min after cocaine
[23] = 1 mg/kg IM, cocaine 1 mg/kg IV 48 hr post-AlbuBChE, 20 min after cocaine
[24] = 1 mg/kg IM, cocaine 1 mg/kg IV 48 hr post-AlbuBChE, 30 min after cocaine
[25] = 1 mg/kg IM, cocaine 1 mg/kg IV 48 hr post-AlbuBChE, 40 min after cocaine
[26] = 1 mg/kg IM, cocaine 1 mg/kg IV 48 hr post-AlbuBChE, 60 min after cocaine
[27] = 1 mg/kg IM, cocaine 1 mg/kg IV 96 hr post-AlbuBChE
[28] = 1 mg/kg IM, cocaine 1 mg/kg IV 96 hr post-AlbuBChE, 5 min after cocaine
[29] = 1 mg/kg IM, cocaine 1 mg/kg IV 96 hr post-AlbuBChE, 10 min after cocaine
[30] = 1 mg/kg IM, cocaine 1 mg/kg IV 96 hr post-AlbuBChE, 15 min after cocaine

AlbuBChE
Ecgonine methyl ester plasma concentration (mean) [1]: 98 ng/mL
Mean benzoylecgonine plasma concentration [1]: 61.4 ng/mL
Mean cocaine plasma concentration [1]: 141 ng/mL
Ecgonine methyl ester plasma concentration (mean) [2]: 82.9 ng/mL
Mean benzoylecgonine plasma concentration [2]: 66.2 ng/mL
Mean cocaine plasma concentration [2]: 64.7 ng/mL
Mean benzoylecgonine AUC(0-t) [3]: 4089 ng·min/mL
Mean cocaine AUC % Extrap [3]: 21.6%
Mean cocaine AUC(0-t) [3]: 13693 ng·min/mL
Mean cocaine AUC(0-∞) [3]: 17650 ng·min/mL
Mean cocaine C0 [3]: 549 ng/mL
Mean cocaine CI [3]: 57.4 mL/min/kg
Mean cocaine Vss [3]: 2.181 L/kg
Mean cocaine t½ [3]: 29.2 min
Ecgonine methyl ester plasma concentration (mean) [4]: 20.1 ng/mL
Mean benzoylecgonine plasma concentration [4]: 53.5 ng/mL
Mean cocaine plasma concentration [4]: 453 ng/mL
Ecgonine methyl ester plasma concentration (mean) [5]: 23.1 ng/mL
Mean benzoylecgonine plasma concentration [5]: 53.3 ng/mL
Mean cocaine plasma concentration [5]: 379 ng/mL
Ecgonine methyl ester plasma concentration (mean) [6]: 25.1 ng/mL
Mean benzoylecgonine plasma concentration [6]: 62.9 ng/mL
Mean cocaine plasma concentration [6]: 297 ng/mL
Ecgonine methyl ester plasma concentration (mean) [7]: 28.3 ng/mL
Mean benzoylecgonine plasma concentration [7]: 63.7 ng/mL
Mean cocaine plasma concentration [7]: 254 ng/mL
Ecgonine methyl ester plasma concentration (mean) [8]: 33.9 ng/mL
Mean benzoylecgonine plasma concentration [8]: 69.8 ng/mL
Mean cocaine plasma concentration [8]: 189 ng/mL
Ecgonine methyl ester plasma concentration (mean) [9]: 38.8 ng/mL
Mean benzoylecgonine plasma concentration [9]: 74.5 ng/mL
Mean cocaine plasma concentration [9]: 133 ng/mL
Ecgonine methyl ester plasma concentration (mean) [10]: 41.4 ng/mL
Mean benzoylecgonine plasma concentration [10]: 80.9 ng/mL
Mean cocaine plasma concentration [10]: 89.5 ng/mL
Mean benzoylecgonine AUC(0-t) [11]: 1960 ng·min/mL
Mean cocaine AUC(0-t) [11]: 7880 ng·min/mL
Mean cocaine C0 [11]: 422 ng/mL
Ecgonine methyl ester plasma concentration (mean) [12]: 235 ng/mL
Mean benzoylecgonine plasma concentration [12]: 30.1 ng/mL
Mean cocaine plasma concentration [12]: 308 ng/mL
Ecgonine methyl ester plasma concentration (mean) [13]: 227 ng/mL
Mean benzoylecgonine plasma concentration [13]: 33.2 ng/mL
Mean cocaine plasma concentration [13]: 235 ng/mL
Ecgonine methyl ester plasma concentration (mean) [14]: 276 ng/mL
Mean benzoylecgonine plasma concentration [14]: 32.5 ng/mL
Mean cocaine plasma concentration [14]: 179 ng/mL
Ecgonine methyl ester plasma concentration (mean) [15]: 301 ng/mL
Mean benzoylecgonine plasma concentration [15]: 32.5 ng/mL
Mean cocaine plasma concentration [15]: 73.7 ng/mL
Ecgonine methyl ester plasma concentration (mean) [16]: 291 ng/mL
Mean benzoylecgonine plasma concentration [16]: 28.9 ng/mL
Mean cocaine plasma concentration [16]: 102 ng/mL
Ecgonine methyl ester plasma concentration (mean) [17]: 202 ng/mL
Mean benzoylecgonine plasma concentration [17]: 38.4 ng/mL
Mean cocaine plasma concentration [17]: 96.9 ng/mL
Ecgonine methyl ester plasma concentration (mean) [18]: 189 ng/mL
Mean benzoylecgonine plasma concentration [18]: 29.6 ng/mL
Mean cocaine plasma concentration [18]: 19.7 ng/mL
Mean benzoylecgonine AUC(0-t) [19]: 1668 ng·min/mL
Mean cocaine AUC % Extrap [19]: 11.9%
Mean cocaine AUC(0-t) [19]: 5965 ng·min/mL
Mean cocaine AUC(0-∞) [19]: 6764 ng·min/mL
Mean cocaine C0 [19]: 226 ng/mL
Mean cocaine CI [19]: 150 mL/min/kg
Mean cocaine Vss [19]: 4.304 L/kg
Mean cocaine t½ [19]: 19.0 min
Ecgonine methyl ester plasma concentration (mean) [20]: 201 ng/mL
Mean benzoylecgonine plasma concentration [20]: 24.0 ng/mL
Mean cocaine plasma concentration [20]: 176 ng/mL
Ecgonine methyl ester plasma concentration (mean) [21]: 32.2 ng/mL
Mean benzoylecgonine plasma concentration [21]: 23.7 ng/mL
Mean cocaine plasma concentration [21]: 140 ng/mL
Ecgonine methyl ester plasma concentration (mean) [22]: 48.2 ng/mL
Mean benzoylecgonine plasma concentration [22]: 24.9 ng/mL
Mean cocaine plasma concentration [22]: 152 ng/mL
Ecgonine methyl ester plasma concentration (mean) [23]: 56.2 ng/mL
Mean benzoylecgonine plasma concentration [23]: 26.7 ng/mL
Mean cocaine plasma concentration [23]: 128 ng/mL
Ecgonine methyl ester plasma concentration (mean) [24]: 63.8 ng/mL
Mean benzoylecgonine plasma concentration [24]: 29.8 ng/mL
Mean cocaine plasma concentration [24]: 87.0 ng/mL
Ecgonine methyl ester plasma concentration (mean) [25]: 64.9 ng/mL
Mean benzoylecgonine plasma concentration [25]: 29.6 ng/mL
Mean cocaine plasma concentration [25]: 62.3 ng/mL
Ecgonine methyl ester plasma concentration (mean) [26]: 57.3 ng/mL
Mean benzoylecgonine plasma concentration [26]: 29.8 ng/mL
Mean cocaine plasma concentration [26]: 29.1 ng/mL
Mean benzoylecgonine AUC(0-t) [27]: 2741 ng·min/mL
Mean cocaine AUC % Extrap [27]: 18.4%
Mean cocaine AUC(0-t) [27]: 10044 ng·min/mL
Mean cocaine AUC(0-∞) [27]: 12313 ng·min/mL
Mean cocaine C0 [27]: 288 ng/mL
Mean cocaine CI [27]: 81.6 mL/min/kg
Mean cocaine Vss [27]: 2.94 L/kg
Mean cocaine t½ [27]: 23.9 min
Ecgonine methyl ester plasma concentration (mean) [28]: 138 ng/mL
Mean benzoylecgonine plasma concentration [28]: 43.9 ng/mL
Mean cocaine plasma concentration [28]: 265 ng/mL
Ecgonine methyl ester plasma concentration (mean) [29]: 39.8 ng/mL
Mean benzoylecgonine plasma concentration [29]: 41.2 ng/mL
Mean cocaine plasma concentration [29]: 245 ng/mL
Ecgonine methyl ester plasma concentration (mean) [30]: 42.9 ng/mL
Mean benzoylecgonine plasma concentration [30]: 40.0 ng/mL
Mean cocaine plasma concentration [30]: 218 ng/mL

From US8541373B2, “BChE albumin fusions for the treatment of cocaine abuse” (priority 2009, dated 2013)
